These are literature values, as cited in publication PMC8625536.

This data set concerns the target Glu89 (UniProt position 105, IDALNENKVLV). The conditions noted are these: Native folded protein; EF loop closed-to-open (Tanford) transition.

Usually pKa stands for the pH at which an ionisable group is half protonated. As to “beta-lactoglobulin (called BBL in the article) (Bos taurus)”, the pKa is on record as around 7.3.
